The source of these data is the supplement of paper PMC5998384.

The test system of data set [1] is HeLa Kyoto. As to the kind of experiment: melting temperature (median over replicates), in situ; higher = more thermally stable.
The test system of data set [2] is HeLa Kyoto. As to the kind of experiment: solubility in G1/S (NP-40 vs SDS abundance) (log2 ratio); higher = more soluble. To be noted: cell cycle stage: G1/S.
Data set [3] concerns HeLa Kyoto. Nature of the data set: thermal stability score vs G1/S (z-score of summed log2 fold changes over temperatures); higher = more thermally stable than in G1/S.
Data set [4] relates to HeLa Kyoto. Nature of the data set: solubility change mitosis vs G1/S (difference of NP-40 vs SDS log2 ratios) (log2 ratio difference); higher = more soluble in mitosis.
[5] abbreviates: cell cycle stage: early G1 (4.5 h after nocodazole release).
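For melting temperature (median over replicates), in situ in this document: HeLa Kyoto cells synchronized by double thymidine or nocodazole block, proteins quantified by TMT10plex mass spectrometry, three independent biological replicates.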
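For solubility change mitosis vs G1/S (difference of NP-40 vs SDS log2 ratios) in this document: synchronized HeLa Kyoto cells (double thymidine block for G1/S, nocodazole release for mitosis), protein amounts in NP-40 versus SDS lysates quantified by mass spectrometry, three biological replicates.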
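For solubility in G1/S (NP-40 vs SDS abundance) in this document: HeLa Kyoto cells arrested at G1/S by double thymidine block, proteins quantified by TMT10plex mass spectrometry in mild NP-40 versus SDS extracts, three biological replicates.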
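For thermal stability score vs G1/S (z-score of summed log2 fold changes over temperatures) in this document: synchronized HeLa Kyoto cells, proteins quantified by TMT10plex mass spectrometry, three biological replicates, mitosis taken 0.5 h after nocodazole release, G1/S directly after double thymidine block.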

Chain of UAP1 (chain, as listed by the source): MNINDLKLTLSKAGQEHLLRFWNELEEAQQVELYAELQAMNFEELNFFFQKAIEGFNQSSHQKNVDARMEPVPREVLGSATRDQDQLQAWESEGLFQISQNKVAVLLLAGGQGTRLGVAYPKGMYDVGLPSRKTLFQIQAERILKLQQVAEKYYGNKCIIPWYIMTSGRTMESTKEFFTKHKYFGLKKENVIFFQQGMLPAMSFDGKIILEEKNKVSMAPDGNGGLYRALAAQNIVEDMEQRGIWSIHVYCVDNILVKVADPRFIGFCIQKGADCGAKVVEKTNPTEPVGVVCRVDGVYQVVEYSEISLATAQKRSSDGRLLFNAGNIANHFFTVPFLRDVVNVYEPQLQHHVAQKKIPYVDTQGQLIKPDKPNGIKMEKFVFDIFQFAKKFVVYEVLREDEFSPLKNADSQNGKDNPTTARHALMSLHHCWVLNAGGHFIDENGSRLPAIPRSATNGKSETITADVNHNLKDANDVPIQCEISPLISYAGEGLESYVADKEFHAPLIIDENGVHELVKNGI

As to “MSLSDWHLAVKLADQPLTPKSILRLPETELGEYSLGGYSISFLKQLIAGKLQESVPDPELIDLIYCGRKLKDDQTLDFYGIQPGSTVHVLRKSWPEPDQKPEPVDKVAAMREFRVLHTALHSSSSYREAVFKMLSNKESLDQIIVATPGLSSDPIALGVLQDKDLFSVFADPNMLDTLVPAHPALVNAIVLVLHSVAGSAPMPGTDSSSRSMPSSSYRDMPGGFLFEGLSDDEDDFHPNTRSTPSSSTPSSRPASLGYSGAAGPRPITQSELATALALASTPESSSHTPTPGTQGHSSGTSPMSSGVQSGTPITNDLFSQALQHALQASGQPSLQSQWQPQLQQLRDMGIQDDELSLRALQATGGDIQAALELIFAGGAP [UBL7]”, the melting temperature in the data set on HeLa Kyoto [1] (cell cycle stage: G1/S) and in the data set on HeLa Kyoto [1] (cell cycle stage: mitosis) was 50.8 °C in each case. For the same substance, in the data set on HeLa Kyoto [2], the “solubility in G1/S (log2)” value was 0.396. Besides, the thermal stability score in the data set with HeLa Kyoto [3] (setting [5]) is -0.52; in the data set on HeLa Kyoto [3] (cell cycle stage: mitosis), -0.245. Besides, the “solubility change mitosis (log2)” value in the data set with HeLa Kyoto [4] amounted to 0.156.

Take “MKYILVTGGVISGIGKGIIASSVGTILKSCGLHVTSIKIDPYINIDAGTFSPYEHGEVFVLDDGGEVDLDLGNYERFLDIRLTKDNNLTTGKIYQYVINKERKGDYLGKTVQVVPHITDAIQEWVMRQALIPVDEDGLEPQVCVIELGGTVGDIESMPFIEAFRQFQFKVKRENFCNIHVSLVPQPSSTGEQKTKPTQNSVRELRGLGLSPDLVVCRCSNPLDTSVKEKISMFCHVEPEQVICVHDVSSIYRVPLLLEEQGVVDYFLRRLDLPIERQPRKMLMKWKEMADRYDRLLETCSIALVGKYTKFSDSYASVIKALEHSALAINHKLEIKYIDSADLEPITSQEEPVRYHEAWQKLCSAHGVLVPGGFGVRGTEGKIQAIAWARNQKKPFLGVCLGMQLAVVEFSRNVLGWQDANSTEFDPTTSHPVVVDMPEHNPGQMGGTMRLGKRRTLFQTKNSVMRKLYGDADYLEERHRHRFEVNPVWKKCLEEQGLKFVGQDVEGERMEIVELEDHPFFVGVQYHPEFLSRPIKPSPPYFGLLLASVGRLSHYLQKGCRLSPRDTYSDRSGSSSPDSEITELKFPSINHD [CTPS1]”: the melting temperature in the data set with HeLa Kyoto [1] (cell cycle stage: G1/S) and in the data set with HeLa Kyoto [1] (cell cycle stage: mitosis) was 55.3 °C throughout. In addition, in the data set with HeLa Kyoto [2], the “solubility in G1/S (log2)” value is -0.00383. The thermal stability score with HeLa Kyoto [3] (setting [5]) is 0.505; in the data set with HeLa Kyoto [3] (cell cycle stage: mitosis) it was -2.34. Further, in the data set on HeLa Kyoto [4], the “solubility change mitosis (log2)” value was -0.0782.

As to UAP1, the values for the melting temperature in the data set with HeLa Kyoto [1] (cell cycle stage: G1/S) and in the data set with HeLa Kyoto [1] (cell cycle stage: mitosis) were 53.2 °C and 53.3 °C, respectively. The “solubility in G1/S (log2)” value in the data set on HeLa Kyoto [2] was found to be 0.216. The thermal stability score in the data set on HeLa Kyoto [3] (setting [5]) is 0.837; with HeLa Kyoto [3] (cell cycle stage: mitosis), 1.62. In the data set on HeLa Kyoto [4], the “solubility change mitosis (log2)” value was -0.119.

For the substance “MIASHLLAYFFTELNHDQVQKVDQYLYHMRLSDETLLEISKRFRKEMEKGLGATTHPTAAVKMLPTFVRSTPDGTEHGEFLALDLGGTNFRVLWVKVTDNGLQKVEMENQIYAIPEDIMRGSGTQLFDHIAECLANFMDKLQIKDKKLPLGFTFSFPCHQTKLDESFLVSWTKGFKSSGVEGRDVVALIRKAIQRRGDFDIDIVAVVNDTVGTMMTCGYDDHNCEIGLIVGTGSNACYMEEMRHIDMVEGDEGRMCINMEWGAFGDDGSLNDIRTEFDQEIDMGSLNPGKQLFEKMISGMYMGELVRLILVKMAKEELLFGGKLSPELLNTGRFETKDISDIEGEKDGIRKAREVLMRLGLDPTQEDCVATHRICQIVSTRSASLCAATLAAVLQRIKENKGEERLRSTIGVDGSVYKKHPHFAKRLHKTVRRLVPGCDVRFLRSEDGSGKGAAMVTAVAYRLADQHRARQKTLEHLQLSHDQLLEVKRRMKVEMERGLSKETHASAPVKMLPTYVCATPDGTEKGDFLALDLGGTNFRVLLVRVRNGKWGGVEMHNKIYAIPQEVMHGTGDELFDHIVQCIADFLEYMGMKGVSLPLGFTFSFPCQQNSLDESILLKWTKGFKASGCEGEDVVTLLKEAIHRREEFDLDVVAVVNDTVGTMMTCGFEDPHCEVGLIVGTGSNACYMEEMRNVELVEGEEGRMCVNMEWGAFGDNGCLDDFRTEFDVAVDELSLNPGKQRFEKMISGMYLGEIVRNILIDFTKRGLLFRGRISERLKTRGIFETKFLSQIESDCLALLQVRAILQHLGLESTCDDSIIVKEVCTVVARRAAQLCGAGMAAVVDRIRENRGLDALKVTVGVDGTLYKLHPHFAKVMHETVKDLAPKCDVSFLQSEDGSGKGAALITAVACRIREAGQR [HK2]”, the melting temperature in the data set with HeLa Kyoto [1] (cell cycle stage: G1/S) is 48.2 °C; with HeLa Kyoto [1] (cell cycle stage: mitosis), 49.1 °C. The “solubility in G1/S (log2)” value in the data set with HeLa Kyoto [2] is -0.166. Also, the thermal stability score in the data set on HeLa Kyoto [3] (setting [5]) amounted to 1.07; in the data set on HeLa Kyoto [3] (cell cycle stage: mitosis) it was 2.33. In addition, the “solubility change mitosis (log2)” value with HeLa Kyoto [4] was -0.148.

For the substance “MAGSVGLALCGQTLVVRGGSRFLATSIASSDDDSLFIYDCSAAEKKSQENKGEDAPLDQGSGAILASTFSKSGSYFALTDDSKRLILFRTKPWQCLSVRTVARRCTALTFIASEEKVLVADKSGDVYSFSVLEPHGCGRLELGHLSMLLDVAVSPDDRFILTADRDEKIRVSWAAAPHSIESFCLGHTEFVSRISVVPTQPGLLLSSSGDGTLRLWEYRSGRQLHCCHLASLQELVDPQAPQKFAASRIAFWCQENCVALLCDGTPVVYIFQLDARRQQLVYRQQLAFQHQVWDVAFEETQGLWVLQDCQEAPLVLYRPVGDQWQSVPESTVLKKVSGVLRGNWAMLEGSAGADASFSSLYKATFDNVTSYLKKKEERLQQQLEKKQRRRSPPPGPDGHAKKMRPGEATLSC [WDR4]”, the melting temperature with HeLa Kyoto [1] (cell cycle stage: G1/S) worked out at 52.8 °C; in the data set with HeLa Kyoto [1] (cell cycle stage: mitosis), 53.9 °C. Further, the “solubility in G1/S (log2)” value with HeLa Kyoto [2] was -0.256. Also, the results for the thermal stability score in the data set with HeLa Kyoto [3] (setting [5]) and in the data set with HeLa Kyoto [3] (cell cycle stage: mitosis) were 0.0653 and -0.0979, respectively. Besides, the “solubility change mitosis (log2)” value in the data set on HeLa Kyoto [4] is -0.396.
